# Assay results published in PMC9352680, “A comprehensive thermodynamic model for RNA binding by the Saccharomyces cerevisiae Pumilio protein PUF4”.
# Substitutions are numbered along the chain they refer to. Names and notes keep the numbering of the source.
# T1: PUF4 RNA-binding domain (Saccharomyces cerevisiae, UniProt P25339 537-888)
# T1 sequence: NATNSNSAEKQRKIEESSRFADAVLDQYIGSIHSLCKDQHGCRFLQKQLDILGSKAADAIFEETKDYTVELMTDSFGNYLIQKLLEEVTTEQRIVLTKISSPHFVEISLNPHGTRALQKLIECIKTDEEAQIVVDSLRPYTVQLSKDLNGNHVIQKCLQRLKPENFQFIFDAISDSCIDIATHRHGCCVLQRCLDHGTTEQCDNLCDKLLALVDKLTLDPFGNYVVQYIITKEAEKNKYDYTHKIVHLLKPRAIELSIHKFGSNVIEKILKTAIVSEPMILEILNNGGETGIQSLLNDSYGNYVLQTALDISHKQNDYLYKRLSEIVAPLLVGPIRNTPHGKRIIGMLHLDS
# B1: Ib_S1_P4E.1_K4.1_C4.1_H4.1_[T3C]_A4.1_F4.1_[A9G]_T4.1 (ssRNA)
# RNA: UCUCUUUGCAUAUUGUCUCUU
# B2: Ib_S1_P4E.1_K4.1_C4.1_H4.1_[A4C]_A4.1_F4.1_[A9G]_T4.1 (ssRNA)
# RNA: UCUCUUUGUCUAUUGUCUCUU
# B3: Ib_S1_P4E.1_K4.1_C4.1_H4.1_[A4G]_A4.1_F4.1_[A9G]_T4.1 (ssRNA)
# RNA: UCUCUUUGUGUAUUGUCUCUU
# B4: Ic_S4_P3E.1_K3.1_C3.1_H3.1_A3.1_[T5G]_[A6C]_F3.1_[T7G]_[A8G]_T3.1 (ssRNA)
# RNA: UUUGACAACUGAUCGUUCUUUCUUGUAGCGGUUCUUUCUCGAUCAGUUGUCUUU
# B5: Ic_S4_P3E.1_K3.1_C3.1_H3.1_A3.1_[T5G]_[A6T]_F3.1_[T7A]_[A8C]_T3.1 (ssRNA)
# RNA: B4 RNA with C29U, G30A, G31C
# B6: Ic_S4_P3E.1_K3.1_C3.1_H3.1_A3.1_[T5C]_F3.1_[T7A]_T3.1 (ssRNA)
# RNA: B4 RNA with G28C, C29A, G30A, G31A
# B7: Ic_S4_P3E.1_K3.1_C3.1_H3.1_A3.1_[T5A]_[A6C]_F3.1_[A8C]_T3.1 (ssRNA)
# RNA: B4 RNA with G28A, G30U, G31C
# B8: Ic_S4_P3E.1_K3.1_C3.1_H3.1_A3.1_[T5G]_[A6C]_F3.1_[T7A]_[A8T]_T3.1 (ssRNA)
# RNA: B4 RNA with G30A, G31U
# B9: Ic_S4_P3E.1_K3.1_C3.1_H3.1_A3.1_[T5C]_[A6T]_F3.1_[T7C]_[A8T]_T3.1 (ssRNA)
# RNA: B4 RNA with G28C, C29U, G30C, G31U
# B10: Ic_S4_P3E.1_K3.1_C3.1_H3.1_A3.1_[T5C]_[A6T]_F3.1_[T7G]_[A8C]_T3.1 (ssRNA)
# RNA: B4 RNA with G28C, C29U, G31C
# B11: Ic_S4_P3E.1_K3.1_C3.1_H3.1_A3.1_[T5C]_[A6T]_F3.1_[T7A]_T3.1 (ssRNA)
# RNA: B4 RNA with G28C, C29U, G30A, G31A
# B12: Ic_S4_P3E.1_K3.1_C3.1_H3.1_A3.1_[T5C]_[A6C]_F3.1_[T7A]_[A8C]_T3.1 (ssRNA)
# RNA: B4 RNA with G28C, G30A, G31C
# B13: Ic_S4_P3E.1_K3.1_C3.1_H3.1_A3.1_[T5A]_[A6T]_F3.1_[T7C]_[A8T]_T3.1 (ssRNA)
# RNA: B4 RNA with G28A, C29U, G30C, G31U
# B14: Ic_S4_P3E.1_K3.1_C3.1_H3.1_A3.1_[T5G]_[A6C]_F3.1_[T7A]_[A8C]_T3.1 (ssRNA)
# RNA: B4 RNA with G30A, G31C
# B15: Ic_S4_P3E.1_K3.1_C3.1_H3.1_A3.1_[T5C]_[A6T]_F3.1_[A8T]_T3.1 (ssRNA)
# RNA: B4 RNA with G28C, C29U, G30U, G31U
# B16: Ic_S4_P3E.1_K3.1_C3.1_H3.1_A3.1_[T5C]_[A6C]_F3.1_[A8T]_T3.1 (ssRNA)
# RNA: B4 RNA with G28C, G30U, G31U
# B17: Ic_S4_P3E.1_K3.1_C3.1_H3.1_A3.1_[T5C]_[A6T]_F3.1_[T7C]_[A8C]_T3.1 (ssRNA)
# RNA: B4 RNA with G28C, C29U, G30C, G31C
# B18: Ic_S4_P3E.1_K3.1_C3.1_H3.1_A3.1_[T5G]_[A6C]_F3.1_[T7G]_[A8C]_T3.1 (ssRNA)
# RNA: B4 RNA with G31C
# B19: Ic_S4_P3E.1_K3.1_C3.1_H3.1_A3.1_[T5G]_[A6C]_F3.1_[T7A]_[A8G]_T3.1 (ssRNA)
# RNA: B4 RNA with G30A
# B20: Ic_S4_P3E.1_K3.1_C3.1_H3.1_A3.1_[T5A]_[A6T]_F3.1_[T7A]_[A8C]_T3.1 (ssRNA)
# RNA: B4 RNA with G28A, C29U, G30A, G31C
# B21: Ic_S4_P3E.1_K3.1_C3.1_H3.1_A3.1_[T5C]_[A6C]_F3.1_[T7A]_[A8T]_T3.1 (ssRNA)
# RNA: B4 RNA with G28C, G30A, G31U
# B22: Ic_S4_P3E.1_K3.1_C3.1_H3.1_A3.1_[T5G]_[A6C]_F3.1_[A8C]_T3.1 (ssRNA)
# RNA: B4 RNA with G30U, G31C
# B23: Ic_S4_P3E.1_K3.1_C3.1_H3.1_A3.1_[T5C]_F3.1_[T7C]_[A8T]_T3.1 (ssRNA)
# RNA: B4 RNA with G28C, C29A, G30C, G31U
# B24: Ic_S4_P3E.1_K3.1_C3.1_H3.1_A3.1_[T5G]_[A6T]_F3.1_[T7G]_[A8T]_T3.1 (ssRNA)
# RNA: B4 RNA with C29U, G31U
# B25: Ic_S4_P3E.1_K3.1_C3.1_H3.1_A3.1_[T5C]_[A6G]_F3.1_[T7G]_[A8C]_T3.1 (ssRNA)
# RNA: B4 RNA with G28C, C29G, G31C
# B26: Ic_S4_P3E.1_K3.1_C3.1_H3.1_A3.1_[T5G]_[A6C]_F3.1_[T7C]_[A8C]_T3.1 (ssRNA)
# RNA: B4 RNA with G30C, G31C
# B27: Ic_S4_P3E.1_K3.1_C3.1_H3.1_A3.1_[T5C]_[A6T]_F3.1_[A8G]_T3.1 (ssRNA)
# RNA: B4 RNA with G28C, C29U, G30U
# B28: Ic_S4_P3E.1_K3.1_C3.1_H3.1_A3.1_[T5C]_F3.1_[T7G]_[A8T]_T3.1 (ssRNA)
# RNA: B4 RNA with G28C, C29A, G31U
# B29: Ic_S4_P3E.1_K3.1_C3.1_H3.1_A3.1_[T5C]_[A6T]_F3.1_[T7C]_T3.1 (ssRNA)
# RNA: B4 RNA with G28C, C29U, G30C, G31A
# Biological target: T1, PUF4 RNA-binding domain
# Test: Mg; RNA-MaP; 20 mM Na-HEPES pH 7.4, 30 mM KOAc, 0.75 mM MgCl2, 0.1% Tween-20, 5% glycerol, 0.1 mg/mL BSA, 2 mM DTT; 25 C; 0.0125-409.6 nM protein
# Details: tags: N-His6-TEV cleaved; C-SNAP kept, Cy3B-labelled; label: tethered on chip by stalled RNA polymerase
row,Binder,Kd [nM]
1,B1,1840
2,B2,569
3,B3,18.3
4,B4,1270
5,B5,404
6,B6,41.6
7,B7,78.8
8,B8,35.8
9,B9,12.3
10,B10,442
11,B11,46.5
12,B12,79.7
13,B13,18.3
14,B14,243
15,B15,10.1
16,B16,13.4
17,B17,120
18,B18,1710
19,B19,836
20,B20,226
21,B21,5.15
22,B22,192
23,B23,5.34
24,B24,100
25,B25,1030
26,B26,648
27,B27,103
28,B28,15.3
29,B29,108
